Measurements from US20190137523A1 (Hoffmann-La Roche, published 2019).

Biological target: T1, VEGF-A 121 (Peprotech), dimeric (human, UniProt P15692-9 27-147)
T1 construct: also called VEGF121
T1 sequence (looked up): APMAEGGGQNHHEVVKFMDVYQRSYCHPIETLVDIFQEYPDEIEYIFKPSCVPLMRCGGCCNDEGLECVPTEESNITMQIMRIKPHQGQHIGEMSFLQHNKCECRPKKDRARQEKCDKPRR
Assay: SPR (Biacore T200), consecutive injections. VEGF-A 121 is displayed by captured rH-4.6.1-IgG (Avastin) and saturated again with rH-4.6.1-IgG. Setup as printed: rH-4.6.1-IgG*VEGF-A*rH4.6.1*Ab1*Ab2
Experimental: The sample buffer was the system buffer supplemented with 1 mg/ml CMD (Carboxymethyldextran, Sigma #86524). The system operated at 25° C.

binding result: binds
B1: 13.7.40-Ru (antibody, V domains shown)
VH: QAQLQQPGAELVKPGASVNLSCKASGYTFTNYWIHWVSQRPGQGLEWIGEINPSDGRTYYNEKFKNKVILTVDEASTTAYLQLSSLTSEDSAVYYCTSRYYIYGVDYWGQGTTLTVSS
VL: SIVMTQTPKFLLVSPGDRVTITCKASQSVGHDVSWYRQKPGQSPKVLIYYASNRYTGVPDRFTGSGYGTDFTFTVRSVRTEDLAVYFCQQDYTSPLTFGTGTKLELKR
notes: Tested as a ruthenylated conjugate
